Key:
[1] = tested on: AncSZ; assay: phosphorylation enrichment, bacterial display (enrichment ratio); higher = better substrate or ligand; peptides without Tyr show the background
[2] = molecular target: EPHB1 (UniProt P54762); assay: as above
[3] = molecular target: EPHB2 (UniProt P29323); assay: as above
[4] = molecular target: FGFR1 (UniProt P11362); assay: as above
[5] = molecular target: FGFR3 (UniProt P22607); assay: as above
[6] = tested on: Fer (mouse); assay: as above
[7] = molecular target: Fes (UniProt P07332); assay: as above
[8] = molecular target: Fyn (UniProt P06241); assay: as above
Fyn, sequence (P06241 whole entry, looked up): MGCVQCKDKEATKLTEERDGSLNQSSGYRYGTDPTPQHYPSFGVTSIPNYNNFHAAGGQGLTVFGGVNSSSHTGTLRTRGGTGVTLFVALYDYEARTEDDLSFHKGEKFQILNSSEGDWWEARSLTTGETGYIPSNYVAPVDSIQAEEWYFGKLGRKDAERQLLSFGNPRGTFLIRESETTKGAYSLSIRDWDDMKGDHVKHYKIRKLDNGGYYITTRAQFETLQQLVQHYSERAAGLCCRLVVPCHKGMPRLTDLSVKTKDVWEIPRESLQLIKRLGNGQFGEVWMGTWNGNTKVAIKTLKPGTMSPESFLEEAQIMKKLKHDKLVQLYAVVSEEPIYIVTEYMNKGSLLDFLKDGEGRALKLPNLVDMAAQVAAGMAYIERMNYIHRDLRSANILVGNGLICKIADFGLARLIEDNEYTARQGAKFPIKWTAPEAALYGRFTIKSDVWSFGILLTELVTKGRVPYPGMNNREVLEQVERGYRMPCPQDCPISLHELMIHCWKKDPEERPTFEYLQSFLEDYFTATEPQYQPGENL

[9] = molecular target: Hck (UniProt P08631); assay: as above
Hck, sequence (P08631 whole entry, looked up): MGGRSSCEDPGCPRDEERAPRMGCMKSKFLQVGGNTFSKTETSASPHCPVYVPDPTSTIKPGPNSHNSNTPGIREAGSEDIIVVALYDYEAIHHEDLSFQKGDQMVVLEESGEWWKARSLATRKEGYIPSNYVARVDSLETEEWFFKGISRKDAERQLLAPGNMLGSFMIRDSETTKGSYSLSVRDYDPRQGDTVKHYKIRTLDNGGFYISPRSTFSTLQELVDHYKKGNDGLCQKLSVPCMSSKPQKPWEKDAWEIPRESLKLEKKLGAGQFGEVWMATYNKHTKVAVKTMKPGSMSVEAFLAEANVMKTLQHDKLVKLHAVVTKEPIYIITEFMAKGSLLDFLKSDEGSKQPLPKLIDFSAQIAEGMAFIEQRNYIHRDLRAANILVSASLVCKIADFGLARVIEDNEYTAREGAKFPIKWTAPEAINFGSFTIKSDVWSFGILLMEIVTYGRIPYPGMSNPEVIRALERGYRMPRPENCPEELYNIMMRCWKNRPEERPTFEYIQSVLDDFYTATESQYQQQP

[10] = molecular target: Jak2 (UniProt O60674); assay: as above
[11] = molecular target: MERTK (UniProt Q12866); assay: as above
[12] = tested on: c-Abl (mouse); assay: as above
[13] = tested on: c-Src; assay: as above
[14] = molecular target: Grb2 SH2 (UniProt P62993); assay: SH2 binding enrichment of the phosphorylated peptide, bacterial display (enrichment ratio); higher = better substrate or ligand; peptides without Tyr show the background
Grb2 SH2, sequence (P62993 whole entry, looked up): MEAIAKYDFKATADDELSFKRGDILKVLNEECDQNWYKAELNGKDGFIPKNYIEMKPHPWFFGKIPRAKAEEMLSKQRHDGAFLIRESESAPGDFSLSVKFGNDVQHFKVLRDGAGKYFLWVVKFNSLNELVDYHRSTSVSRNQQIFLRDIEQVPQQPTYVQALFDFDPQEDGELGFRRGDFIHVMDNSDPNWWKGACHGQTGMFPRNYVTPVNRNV

[15] = molecular target: SHP2-C SH2; assay: as above
[16] = molecular target: c-Src SH2; assay: as above
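Wherever SH2 binding enrichment of the phosphorylated peptide, bacterial display is given: peptide library displayed on the E. coli surface as eCPX fusions, selected cells deep-sequenced, score is each peptide's frequency after selection divided by its frequency in the input.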
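Wherever phosphorylation enrichment, bacterial display is given: 11-residue human phosphosite peptides and single-mutation variants displayed on the E. coli surface, counted by deep sequencing, each peptide's frequency after selection divided by its frequency in the unselected input library; frequency after pTyr selection over input frequency; kinase dosed for 20-30% of maximal phosphorylation in three min.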

EPHB1, sequence (P54762 whole entry, looked up): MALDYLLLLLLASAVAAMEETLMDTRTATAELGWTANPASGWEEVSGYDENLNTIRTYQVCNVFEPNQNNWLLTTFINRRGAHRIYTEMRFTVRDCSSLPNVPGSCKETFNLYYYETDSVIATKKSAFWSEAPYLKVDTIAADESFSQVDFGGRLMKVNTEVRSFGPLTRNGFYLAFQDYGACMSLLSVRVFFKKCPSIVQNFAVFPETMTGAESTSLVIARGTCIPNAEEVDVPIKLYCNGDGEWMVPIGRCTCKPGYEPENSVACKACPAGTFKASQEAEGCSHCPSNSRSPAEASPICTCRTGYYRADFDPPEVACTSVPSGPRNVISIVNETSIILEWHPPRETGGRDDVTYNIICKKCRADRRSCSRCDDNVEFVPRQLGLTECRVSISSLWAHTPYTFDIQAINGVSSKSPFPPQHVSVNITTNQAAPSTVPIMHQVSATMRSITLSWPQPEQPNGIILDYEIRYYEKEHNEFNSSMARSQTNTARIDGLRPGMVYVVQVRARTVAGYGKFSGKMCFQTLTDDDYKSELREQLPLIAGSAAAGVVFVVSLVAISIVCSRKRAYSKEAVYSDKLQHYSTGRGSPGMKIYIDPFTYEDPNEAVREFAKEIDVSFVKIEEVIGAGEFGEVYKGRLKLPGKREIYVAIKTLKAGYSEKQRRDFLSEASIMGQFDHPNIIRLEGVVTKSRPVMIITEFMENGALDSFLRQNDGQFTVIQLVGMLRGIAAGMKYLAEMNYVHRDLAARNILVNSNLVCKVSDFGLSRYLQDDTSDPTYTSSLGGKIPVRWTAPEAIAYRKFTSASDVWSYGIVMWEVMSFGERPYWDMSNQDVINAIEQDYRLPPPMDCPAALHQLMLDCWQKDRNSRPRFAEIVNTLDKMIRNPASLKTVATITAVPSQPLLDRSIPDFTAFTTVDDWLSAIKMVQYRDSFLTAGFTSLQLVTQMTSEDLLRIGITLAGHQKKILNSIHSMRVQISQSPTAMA
FGFR3, sequence (P22607 whole entry, looked up): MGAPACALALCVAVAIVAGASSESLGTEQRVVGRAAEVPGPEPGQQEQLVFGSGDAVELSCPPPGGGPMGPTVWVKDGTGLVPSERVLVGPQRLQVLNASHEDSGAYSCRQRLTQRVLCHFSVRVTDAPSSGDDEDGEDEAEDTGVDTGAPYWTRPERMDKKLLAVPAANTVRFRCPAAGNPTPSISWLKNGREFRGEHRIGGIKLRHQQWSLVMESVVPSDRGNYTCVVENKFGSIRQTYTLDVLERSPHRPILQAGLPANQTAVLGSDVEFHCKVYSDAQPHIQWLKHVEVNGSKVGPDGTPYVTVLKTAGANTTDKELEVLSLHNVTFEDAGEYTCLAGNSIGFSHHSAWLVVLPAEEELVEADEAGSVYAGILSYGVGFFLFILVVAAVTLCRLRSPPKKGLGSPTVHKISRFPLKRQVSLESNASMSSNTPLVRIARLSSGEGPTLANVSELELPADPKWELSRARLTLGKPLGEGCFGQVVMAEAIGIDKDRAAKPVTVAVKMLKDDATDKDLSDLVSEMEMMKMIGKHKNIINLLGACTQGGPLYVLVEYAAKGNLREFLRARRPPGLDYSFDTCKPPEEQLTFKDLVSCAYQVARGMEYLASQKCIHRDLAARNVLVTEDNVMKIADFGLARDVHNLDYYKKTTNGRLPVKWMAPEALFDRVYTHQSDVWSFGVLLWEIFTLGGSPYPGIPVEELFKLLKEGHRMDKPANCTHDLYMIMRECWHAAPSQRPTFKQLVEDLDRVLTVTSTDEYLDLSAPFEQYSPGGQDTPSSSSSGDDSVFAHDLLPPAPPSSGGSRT
EPHB2, sequence (P29323 whole entry, looked up): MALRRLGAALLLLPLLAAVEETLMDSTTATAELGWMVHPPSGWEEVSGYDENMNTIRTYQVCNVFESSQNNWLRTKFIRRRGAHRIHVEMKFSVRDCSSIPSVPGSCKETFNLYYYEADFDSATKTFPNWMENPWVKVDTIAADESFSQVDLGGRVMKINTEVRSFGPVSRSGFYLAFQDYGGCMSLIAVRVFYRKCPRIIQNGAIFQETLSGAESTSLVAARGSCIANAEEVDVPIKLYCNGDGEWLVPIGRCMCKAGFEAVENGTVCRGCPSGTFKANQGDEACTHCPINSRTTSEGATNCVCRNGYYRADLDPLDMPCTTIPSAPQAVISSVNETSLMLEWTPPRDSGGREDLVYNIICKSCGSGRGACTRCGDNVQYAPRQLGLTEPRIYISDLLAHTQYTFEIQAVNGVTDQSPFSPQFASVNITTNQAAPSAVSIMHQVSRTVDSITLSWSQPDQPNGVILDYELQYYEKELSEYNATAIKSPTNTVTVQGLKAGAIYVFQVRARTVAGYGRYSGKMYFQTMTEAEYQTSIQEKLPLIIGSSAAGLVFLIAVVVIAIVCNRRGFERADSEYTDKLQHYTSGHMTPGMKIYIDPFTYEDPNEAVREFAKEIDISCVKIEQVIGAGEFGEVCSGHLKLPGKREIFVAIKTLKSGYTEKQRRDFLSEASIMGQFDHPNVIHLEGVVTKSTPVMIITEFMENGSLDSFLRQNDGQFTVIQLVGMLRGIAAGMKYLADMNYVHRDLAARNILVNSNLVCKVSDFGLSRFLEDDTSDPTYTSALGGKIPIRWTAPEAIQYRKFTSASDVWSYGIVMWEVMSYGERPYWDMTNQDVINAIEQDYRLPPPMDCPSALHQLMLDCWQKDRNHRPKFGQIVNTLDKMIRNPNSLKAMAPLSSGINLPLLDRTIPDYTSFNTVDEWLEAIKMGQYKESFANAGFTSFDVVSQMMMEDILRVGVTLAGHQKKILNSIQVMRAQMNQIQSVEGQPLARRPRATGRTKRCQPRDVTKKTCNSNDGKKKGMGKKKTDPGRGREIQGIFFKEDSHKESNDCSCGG
FGFR1, sequence (P11362 whole entry, looked up): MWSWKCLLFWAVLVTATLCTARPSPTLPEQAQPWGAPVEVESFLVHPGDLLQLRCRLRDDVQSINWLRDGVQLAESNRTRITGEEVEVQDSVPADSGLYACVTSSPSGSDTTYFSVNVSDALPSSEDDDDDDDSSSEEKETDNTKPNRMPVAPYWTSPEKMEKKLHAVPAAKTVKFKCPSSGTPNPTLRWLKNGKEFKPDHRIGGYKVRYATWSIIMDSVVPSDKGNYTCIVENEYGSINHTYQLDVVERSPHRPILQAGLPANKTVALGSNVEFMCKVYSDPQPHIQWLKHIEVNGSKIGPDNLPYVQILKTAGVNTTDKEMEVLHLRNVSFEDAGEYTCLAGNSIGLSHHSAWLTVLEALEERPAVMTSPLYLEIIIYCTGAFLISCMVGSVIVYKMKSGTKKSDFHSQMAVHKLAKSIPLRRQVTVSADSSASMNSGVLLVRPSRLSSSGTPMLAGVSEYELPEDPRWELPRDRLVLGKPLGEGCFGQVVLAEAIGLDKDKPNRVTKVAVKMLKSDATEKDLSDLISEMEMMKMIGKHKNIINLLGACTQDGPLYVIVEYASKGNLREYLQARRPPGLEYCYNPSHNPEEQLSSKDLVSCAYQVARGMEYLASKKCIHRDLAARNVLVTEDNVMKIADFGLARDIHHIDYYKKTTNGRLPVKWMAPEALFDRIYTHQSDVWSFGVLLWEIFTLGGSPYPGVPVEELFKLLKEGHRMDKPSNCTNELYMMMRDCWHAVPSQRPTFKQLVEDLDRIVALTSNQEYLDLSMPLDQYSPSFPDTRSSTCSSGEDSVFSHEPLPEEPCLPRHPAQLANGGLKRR

Sequence	phosphorylation enrichment [1]	phosphorylation enrichment [2]	phosphorylation enrichment [3]	phosphorylation enrichment [4]	phosphorylation enrichment [5]	phosphorylation enrichment [6]	phosphorylation enrichment [7]	phosphorylation enrichment [8]	phosphorylation enrichment [9]	phosphorylation enrichment [10]	phosphorylation enrichment [11]	phosphorylation enrichment [12]	phosphorylation enrichment [13]	SH2 binding enrichment [14]	SH2 binding enrichment [15]	SH2 binding enrichment [16]
EKQVAYCPSGR [ROS1_Y2323_K2328R]	2.05	0.511	0.615	0.531	0.705	0.675	1.18	0.569	0.501	1.27	0.667	1.06	0.782	1.01	0.59	0.631
ELANLYHHVCM [BICD2_Y538]	1.17	0.666	0.708	1.57	1.49	1.77	1.05	0.869	2.17	1.23	1.24	0.982	1.47	0.673	0.597	0.783
ELAVNYQEQAS [SLC9A9_Y591_I589V]	0.96	0.563	0.694	0.605	0.883	0.519	1.06	0.534	0.559	0.829	0.435	0.66	0.496	0.964	0.678	0.563
ENRKFYKDLKE [PURA_Y156_M157K_YF]	0.532	0.312	0.552	0.401	0.493	0.387	0.699	0.418	0.473	0.536	0.589	0.431	0.422	0.847	0.739	0.426
ENRKYYKDLKE [PURA_Y156_M157K]	0.55	0.34	0.298	0.359	0.457	0.318	0.766	0.359	0.295	0.772	0.34	0.549	0.352	0.713	0.574	0.592
EPGSLYGCGGG [ATM_Y2019_D2016G]	0.77	0.548	0.527	0.52	0.567	0.818	0.803	0.851	2.19	0.707	0.634	0.584	0.918	1.24	0.695	0.589
EPTPGYEVSQR [TSC2_Y1788_G1791S]	0.83	0.434	0.549	0.46	0.641	0.447	0.888	0.437	0.441	0.706	0.427	0.615	0.383	0.858	0.629	0.56
EPVSDYINADI [PTPN11_Y304_N308D]	1.5	0.695	0.689	0.77	0.908	0.614	1.33	0.581	0.637	1.12	0.492	9	0.514	0.761	0.437	0.464
EQKKFYNAMKK [SCN5A_Y1495_YF]	0.484	0.299	0.317	0.394	0.339	0.34	0.576	0.325	0.367	0.569	0.379	0.52	0.373	1.06	0.955	0.859
EQKKFYNAVKK [SCN5A_Y1495_M1498V_YF]	0.499	0.417	0.407	0.35	0.35	0.402	0.57	0.392	0.429	1.06	0.482	0.531	0.461	0.966	0.646	0.648
EQLRAYLEGTC [HLA-C_Y183]	1.02	0.467	0.591	0.843	0.692	0.558	1.08	0.453	0.55	0.866	0.403	0.53	0.423	0.844	0.707	0.561
ERDFTYDELLN [EIF2S2_Y176_E177D_YF]	1.53	0.616	0.598	0.58	0.815	0.638	1.33	0.667	0.994	1.46	0.537	0.894	0.796	1.07	0.789	1.2
EREFKYGAHKF [OAT_Y50_N54K_YF]	0.599	0.339	0.412	0.424	0.438	0.329	0.738	0.443	0.427	0.571	0.392	0.496	0.423	0.846	0.585	0.464
ESDYTYSSSYE [SRPK2_Y427]	2.42	1.3	1.45	1.12	1.06	0.68	1.15	1.11	0.86	0.852	0.486	0.725	1.43	0.829	0.734	1.15
ETEMLYGSAPR [PRC1_Y464]	0.889	0.433	0.513	0.474	0.557	6.32	0.805	6.44	6.51	0.556	0.414	0.716	5.25	0.784	0.686	0.437
ETGNLYIAKVE [CNTN4_Y180]	0.896	0.522	0.52	0.405	0.62	0.441	0.89	0.448	0.479	0.757	0.336	0.635	0.391	0.705	0.533	0.276
EVVGRYSGHNA [MLH1_Y183_V185G]	0.464	0.434	0.4	0.405	0.48	0.397	0.514	0.414	0.403	0.397	0.426	0.368	0.34	0.768	0.629	0.448
EWKNNYPRLRE [OPA1_Y582]	0.563	0.337	0.442	0.383	0.483	0.4	0.607	0.422	0.441	0.564	0.404	0.797	0.371	0.738	0.55	0.453
FADPFYDFEIE [ZC3H18_Y372_YF]	1.36	0.785	0.687	0.57	0.708	0.752	1.19	3.26	0.674	1.12	0.555	0.817	3.4	1.42	0.8	0.693
FAGRDYSLDEF [MYOF_Y1705_G1701A_YF]	0.986	0.433	0.567	0.497	0.708	0.451	0.969	0.454	0.51	1.01	0.45	0.639	0.572	0.699	0.712	0.69
FASTGYGIAIQ [GRIN2B_Y762]	0.655	0.575	0.456	0.557	0.55	0.375	0.92	0.499	0.484	0.605	0.408	0.739	0.408	0.721	0.647	0.452
FCVDCYKNFVA [FHL1_Y213_YF]	0.862	0.533	0.751	0.57	0.617	0.523	0.957	0.562	0.529	0.898	0.487	0.776	0.461	1.2	1.02	0.946
FCVVRYCWLRR [MPZ_Y181_Y177C]	0.718	0.45	0.603	0.552	0.709	0.404	0.76	0.606	0.577	0.586	0.656	0.773	0.738	0.581	0.515	0.539
FDAHIYEGCVI [PRKCD_Y64_R67C]	1.39	0.656	0.639	0.563	0.831	10.5	1.44	2.48	2.53	1.05	0.635	0.938	3.34	0.713	0.758	0.5
FDEFRYRSVIK [CFTR_Y517_YF]	0.768	0.39	0.472	0.466	0.484	0.409	0.804	0.41	0.498	0.607	0.463	0.544	0.46	0.812	0.527	0.444
FDGGCYEQLFV [MC4R_Y41_S36Y_YF]	2.53	1.09	1.07	1.05	1.33	10.7	1.49	1.81	2.67	1.43	0.875	0.748	2.46	0.709	0.654	0.485
FDGKDYIALKE [HLA-A_Y147_N151K_YF]	0.952	0.407	0.43	0.398	0.44	0.379	0.672	0.376	0.363	0.659	0.406	0.536	0.489	0.919	0.677	0.499
FDNPVCQKTTE [LDLR_Y828_Y828C]	1.1	0.485	0.653	0.57	0.774	0.528	1.18	0.573	0.603	0.875	0.477	0.877	0.523	0.969	0.812	0.563
FEEDSYVTRSQ [RET_Y905_K907T_YF]	1.18	0.651	0.829	0.452	1.08	0.529	1.33	0.5	0.531	1.27	0.47	0.912	0.617	0.878	0.548	0.419
